# Experimental data as given in paper PMC11511902.
# Read-outs that look alike come from different tables or passages of the source.
# T1: His6-gp1 (Bacillus thuringiensis phage GIL01 …, UniProt Q7WSG8 1-58)
# T1 sequence: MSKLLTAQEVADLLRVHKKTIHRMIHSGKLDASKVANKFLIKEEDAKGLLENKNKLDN
# B1: SPR_wt 81-bp P2 fragment (dsDNA)
# DNA 1: GTTACTACTCGAGCGAACATTTGCATTACTGGTAACTTTCGGGTAATATTGGTAGCAGAGAGGGACAAACGGGACAAATCGAGACACGATACATAC
# DNA 2: GTATGTATCGTGTCTCGATTTGTCCCGTTTGTCCCTCTCTGCTACCAATATTACCCGAAAGTTACCAGTAATGCAAATGTT
# DNA 3: CGCTCGAGTAGTAAC
# B2: SPR_172Δ355 (cp33.1) 81-bp fragment (dsDNA)
# DNA 1: GTTACTACTCGAGCGAAAAGGAAAAGTGTGACAAGATATTCCAAGGGTGCTATAATAGGAAATGAGTAAACTACTGACTGCGCAAGAGGTTGCAGA
# DNA 2: TCTGCAACCTCTTGCGCAGTCAGTAGTTTACTCATTTCCTATTATAGCACCCTTGGAATATCTTGTCACACTTTTCCTTTT
# DNA 3: CGCTCGAGTAGTAAC
# B3: SPR_252Δ262 (cp33.14) 81-bp fragment (dsDNA)
# DNA 1: GTTACTACTCGAGCGTGTAATATAAAAACATTTGCATTACTGGTAATATTGGTAGCAGAGAGGGACAAACGGGACAAATCGAGACACGATACATAC
# DNA 2: GTATGTATCGTGTCTCGATTTGTCCCGTTTGTCCCTCTCTGCTACCAATATTACCAGTAATGCAAATGTTTTTATATTACA
# DNA 3: CGCTCGAGTAGTAAC
# Key:
# Assay in all cases: SPR
# His6-gp1 [1] = target: T1, His6-gp1
# His6-gp1 [2] = target: T1, His6-gp1; remark: listed apart in the source
# His6-gp1 [3] = target: T1, His6-gp1; remark: listed apart in the source
binder,measurement,setting,value
B1,binding result,His6-gp1 [1],binds
B2,binding result,His6-gp1 [2],no binding
B3,binding result,His6-gp1 [3],binds
